# Experimental data: the supplement of paper PMC12764529
# ± gives the half width of the 95% confidence interval.
# Test: folding stability dG unfold from trypsin proteolysis; higher = more stable
# Method in brief: (§1)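 Bayesian fitting of sequencing counts gave K50 for each design. Unfolding free energy followed by setting this against a sequence-predicted unfolded-state K50 and a shared folded-state K50, either per protease or with trypsin and chymotrypsin combined. The designs, under 80 residues and lacking cysteine, were digested in a PA-tagged cDNA display format at 11 threefold-diluted protease concentrations and without protease, and only those with AlphaFold2 dimer inter-PAE above 15 were kept.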
row,Sequence,folding stability dG unfold [kcal/mol]
1,SAMEITIEKDENGNIRITLKLDGAEIIEEKEVPPGEKEKTIKIKVDGKVLELTIKDGKIEIKEVSPEDLSAG [r14_403_TrROS_Hall],2.93 ± 0.14
2,SALTLEIELEFELEDGYRVTVRARLEFDPETNELTIEVEVRIEPLPPPPPPPETVLVKDENGNWHPLEDLSA [r9_898_TrROS_Hall],3.22 ± 0.14
3,SAGGSADEVEITLELEVELAPGQKTLTFKLLNLPPGLKFEVEEVELKVVEEDGKLRVEATIRIKKDSAGGSA [r15_321_TrROS_Hall],2.86 ± 0.17
4,SAGGSAGGSKKKKKITIEILIKLKPGESPEEIAKKLEEKLGLKVKKVEVVKENGYYLVKIEIESAGGSAGGS [r20_188_TrROS_Hall],1.52 ± 0.038
5,AELEAEVVSVEEVNGETVVVVRVDGELVVRTFRPPPPRPLSLEELKRLAEELREQNPELAEEAEKLLEALAS [r1_330_TrROS_Hall],2.49 ± 0.12
6,SMKSKISEIKSVEKKGNKVVVKVKIKAPKGKAYFIDSNGNIIKEVNLGKEVELEITFDSNNESFKVIVTDSA [r9_917_TrMRF],1.34 ± 0.065
7,SAGGSAGGSAKTVTLTIEITNEDGKKFTAKIEVTYDEETGEFTVRIEIFDKNGKLIAEFPLSAGGSAGGSAG [r3_154_TrROS_Hall],3.72 ± 0.17
8,SEKLTVTLTLTVVTTETRVTYDKETGELTVETRTEVRTLTLTVTADSEEEAKRAVQELLDALEKNPELLSSA [r9_77_TrROS_Hall],3.8 ± 0.14
9,SAGGSAGGPVIEIEMPKNGFFRVKIWNPGNGKKQEYWIPPDEPDALKSLLDPGIDRVEIEPYPPSAGGSAGG [r6_640_TrROS],-0.000886 ± 0.15
10,SGIGEMSPEEIAKRLAEELGLSGIEVSVSTEGNTLTIPVKAKDPVKNEEITITITITPENGGKIKITTAGSA [r9_1042_JUSTAS],0.397 ± 0.12
11,SAGGSAGGSGIKITEYKINPETGTIEKTEIYIKPIPNTNKLKIEKKTKSIPILPDQKPDLSLDSAGGSAGGS [r12_700_TrMRF],-0.235 ± 0.18
12,SAGGSAGGSATTIEITLPDGTKAVTLSTTSENSILLLVTAPDSPSLGFIDKNNPNNIILLKSAGGSAGGSAG [r3_450_JUSTAS],0.467 ± 0.054
13,SAGGSAGGSALELIKEIAEEHNIPVDIEPTGNKIRVEIEMPNPDGQPVKHTIEIPIPPDENQSAGGSAGGSA [r18_27_TrROS],0.389 ± 0.11
14,SAGGSAGGSAGGSTPTPDGSPVEITLPDGTVVTFDPATNSITIATRTPDSVSTTPIPAAASAGGSAGGSAGG [r7_527_JUSTAS],1.34 ± 0.031
15,SAGGSAMKEGKPAVEVEVTVLIELSAEEIAKLLGKEIKEGDTVLITVKVRVYPDGSVEIEIRVEKLSAGGSA [r15_91_TrROS_Hall],2.87 ± 0.15
16,SAGKKKEEEKKKKEEKKKKEYYLVKVKIKNPNGEEKEIVLKAKSLEEAKKALEKLGLKVEIVEIKPIKVSAG [r5_233_TrROS_Hall],1.7 ± 0.11
17,SAGPVLLELESPSGGRYRIALPPNVTEIRRVGDRFIIRLPDGFSLVIEVDEDEPPSTLNDIKILAVIPSAGG [r19_274_TrMRF],2.19 ± 0.03
18,SAGGSAGGSAGPPDFQIYVDIETQRNPGNGRYYVTMKIYIGNKPIVEITIPAGEPLKIKFSAGGSAGGSAGG [r17_281_TrROS],2.66 ± 0.12
19,SAGGMIPVSPEQYKAVEKLLKEGKDGSTVLVKTEDGRYIEIDPAGTARFFGDKPKEFPLEKIKKIIPSAGGS [r16_664_TrMRF],-0.209 ± 0.13
20,SAGSITIDGLTPDKEQEVKITVTLPLPGGGTVTLELTAKVTYDPATGLAKMPITLPDGTVLPLTLPLPESAG [r5_743_JUSTAS],2.21 ± 0.12
21,SAGGKTIVVPEKDVEKLLKELEKLGFKVTKVERKDGYVTVTIEVEKDGKLEKIEIRIYRPEDLDKPPSAGGS [r8_307_TrROS_Hall],1.1 ± 0.072

# Test: folding stability dG unfold (combined trypsin and chymotrypsin); higher = more stable
# Method in brief: as §1
row,Sequence,folding stability dG unfold [kcal/mol]
1,SAGMDPDDPDYMIFINLDIKLEVEPDPDNGKPYVKLEIRITNIMVFDPDNGKMEMEPIEIEMTLPPDDISAG [r5_270_TrROS],2.48 ± 0.3
2,SAMYTLRTISYDPNTGVRKLELTVDPAHPDRPVPEAVTQAVADAYAAQGWSVTVTRHPDGSVVIDVPVPSAG [r14_865_JUSTAS],1.88 ± 0.022
3,SAGGSAGGSAGGSSAKDILDELKGITFFHPNGRRYRITDVEIEPHGDGWVLSIEMEPYPSAGGSAGGSAGGS [r4_299_TrROS],2.7 ± 0.059
4,SAGGSAMPILTDTVYEIPVDRSPDETEEEIKEYLKELLLKKLPPGTEVKLEVKFDPETGTVTVKVVSAGGSA [r15_739_JUSTAS],1.58 ± 0.12
5,SAGMVIRLTSPTGSLEITITVEPDGETREAVVKAASGEEVSVIPPSVSVEEIKKRFPDVTASEEPLDLPSAG [r5_314_JUSTAS],0.628 ± 0.071
6,SAGGSAGGKKLYIVKIKIKNENGEEIEITLVFETEEQLKEALESLPIKNVKIEDVEIIPLEELKSAGGSAGG [r6_296_TrROS_Hall],3 ± 0.063
7,SAGGSAGGSMALPPDLEVRITERTVSPDGSTTTYTVERPDGTTVTLTSEAELAALRESGVVLESAGGSAGGS [r12_455_JUSTAS],0.145 ± 0.089
8,SAGGSAGGSNIKIPSLQIYPNPNGYYISIKIEHEHPDPDGKKHEVEMSFMIWVPPGESLEDLFSAGGSAGGS [r12_889_TrROS],2.29 ± 0.12
9,AKLPEGAKVVIEVRRADDGETRTITLDDDVTITITYDKDTGKVEVRAYVFDKNGKLVAEETLTLSLEELLSS [r1_380_TrROS_Hall],3.1 ± 0.067
10,SAGGSAGGSAGGGSMPVKEEVIVEVDPTEVPVTLVTTTVVKTYPDGSVEETVTVEVKLVSAGGSAGGSAGGS [r10_598_JUSTAS],0.777 ± 0.18
11,SAGGKEKIILIPAKDKEKVLELLKALADEGKTVRIINLKTGKVEEVTVDELLALAEKTNEPILIEVESAGGS [r16_263_TrROS_Hall],3.34 ± 0.21
12,SAGGMTEVSEVERSVIPDEGIPVTLERVETTVTVPPTTYKDEKGEVLPPGAVVHTESTVTIEERPELSAGGS [r8_262_JUSTAS],0.257 ± 0.14
13,SAGGSASTLRLIVIPPSYPNMTIEEAIKNIKIKRPDGKEFEVEVLEVIPVKDYRLLLVRIKDPIPYSAGGSA [r15_331_TrMRF],2.43 ± 0.14
14,SAKMTAEELAKKLAEELAKKLGVKVKVEVEVKVEEKDGKLVIEVKIKVYNENGELIEEIKIEIVLPKEESAG [r14_708_TrROS_Hall],3.51 ± 0.28
15,SMREITVTLPSEELAEELREAAEALGVEEVEVSRLPEDRLEIRIKTNSDPESVIQALKDLAEKRGLEVAASA [r9_1003_JUSTAS],1.61 ± 0.085
16,SAGGSAGGSAGGITLEEILKLIKDQPPGETRMIRLPGNGYTIQIYYEDNQLEIDIEPVKDSAGGSAGGSAGG [r7_448_TrROS],1.41 ± 0.078
17,SAGGSAPSSELLEEEFETEDKSNNTTIKIYKVPGTGDYLIETTTPSGKKTKLTLGPLSESEAKGLISAGGSA [r15_295_JUSTAS],0.32 ± 0.059
18,SAGGSAGGGRLLIDRAFDSLEDIEEFLRELETPALVHLPDGTELFYERGDGFTEIHVIPPGELGSAGGSAGG [r6_641_TrMRF],1 ± 0.099
19,SKKYKIKKVTIFVYKNGKVEEKEVDLTVDELKALEDAGFEVVKVEEKDGYITVVIKKDGYLVIIKIEIEPSA [r9_5_TrROS_Hall],3.52 ± 0.37
20,SAGGSAGGSAGGELELEVEVDGVLVRARVELDPETDELKIELEVRPLPPPEVVFLPEDRSAGGSAGGSAGGS [r10_582_TrROS_Hall],0.489 ± 0.1
21,SAMEITIEKDENGNIRITLKLDGAEIIEEKEVPPGEKEKTIKIKVDGKVLELTIKDGKIEIKEVSPEDLSAG [r14_403_TrROS_Hall],3.44 ± 0.13

row,Sequence,folding stability dG unfold [kcal/mol]
1,SALTLEIELEFELEDGYRVTVRARLEFDPETNELTIEVEVRIEPLPPPPPPPETVLVKDENGNWHPLEDLSA [r9_898_TrROS_Hall],3.27 ± 0.15
2,SAGGSADEVEITLELEVELAPGQKTLTFKLLNLPPGLKFEVEEVELKVVEEDGKLRVEATIRIKKDSAGGSA [r15_321_TrROS_Hall],3.72 ± 0.16
3,SAGGSAGGSKKKKKITIEILIKLKPGESPEEIAKKLEEKLGLKVKKVEVVKENGYYLVKIEIESAGGSAGGS [r20_188_TrROS_Hall],2.85 ± 0.084
4,AELEAEVVSVEEVNGETVVVVRVDGELVVRTFRPPPPRPLSLEELKRLAEELREQNPELAEEAEKLLEALAS [r1_330_TrROS_Hall],2.33 ± 0.26
5,SMKSKISEIKSVEKKGNKVVVKVKIKAPKGKAYFIDSNGNIIKEVNLGKEVELEITFDSNNESFKVIVTDSA [r9_917_TrMRF],1.84 ± 0.099
6,SAGGSAGGSAKTVTLTIEITNEDGKKFTAKIEVTYDEETGEFTVRIEIFDKNGKLIAEFPLSAGGSAGGSAG [r3_154_TrROS_Hall],4.98 ± 0.2
7,SEKLTVTLTLTVVTTETRVTYDKETGELTVETRTEVRTLTLTVTADSEEEAKRAVQELLDALEKNPELLSSA [r9_77_TrROS_Hall],4.66 ± 0.15
8,SAGGSAGGPVIEIEMPKNGFFRVKIWNPGNGKKQEYWIPPDEPDALKSLLDPGIDRVEIEPYPPSAGGSAGG [r6_640_TrROS],0.671 ± 0.082
9,SGIGEMSPEEIAKRLAEELGLSGIEVSVSTEGNTLTIPVKAKDPVKNEEITITITITPENGGKIKITTAGSA [r9_1042_JUSTAS],0.444 ± 0.21
10,SAGGSAGGSGIKITEYKINPETGTIEKTEIYIKPIPNTNKLKIEKKTKSIPILPDQKPDLSLDSAGGSAGGS [r12_700_TrMRF],0.412 ± 0.27
11,SAGGSAGGSATTIEITLPDGTKAVTLSTTSENSILLLVTAPDSPSLGFIDKNNPNNIILLKSAGGSAGGSAG [r3_450_JUSTAS],0.627 ± 0.093
12,SAGGSAGGSALELIKEIAEEHNIPVDIEPTGNKIRVEIEMPNPDGQPVKHTIEIPIPPDENQSAGGSAGGSA [r18_27_TrROS],0.975 ± 0.2
13,SAGGSAGGSAGGSTPTPDGSPVEITLPDGTVVTFDPATNSITIATRTPDSVSTTPIPAAASAGGSAGGSAGG [r7_527_JUSTAS],1.2 ± 0.035
14,SAGGSAMKEGKPAVEVEVTVLIELSAEEIAKLLGKEIKEGDTVLITVKVRVYPDGSVEIEIRVEKLSAGGSA [r15_91_TrROS_Hall],3.08 ± 0.17
15,SAGKKKEEEKKKKEEKKKKEYYLVKVKIKNPNGEEKEIVLKAKSLEEAKKALEKLGLKVEIVEIKPIKVSAG [r5_233_TrROS_Hall],2.71 ± 0.17
16,SAGPVLLELESPSGGRYRIALPPNVTEIRRVGDRFIIRLPDGFSLVIEVDEDEPPSTLNDIKILAVIPSAGG [r19_274_TrMRF],2.38 ± 0.043
17,SAGGSAGGSAGPPDFQIYVDIETQRNPGNGRYYVTMKIYIGNKPIVEITIPAGEPLKIKFSAGGSAGGSAGG [r17_281_TrROS],3.4 ± 0.14
18,SAGGMIPVSPEQYKAVEKLLKEGKDGSTVLVKTEDGRYIEIDPAGTARFFGDKPKEFPLEKIKKIIPSAGGS [r16_664_TrMRF],0.235 ± 0.12
19,SAGSITIDGLTPDKEQEVKITVTLPLPGGGTVTLELTAKVTYDPATGLAKMPITLPDGTVLPLTLPLPESAG [r5_743_JUSTAS],2.1 ± 0.093
20,SAGGKTIVVPEKDVEKLLKELEKLGFKVTKVERKDGYVTVTIEVEKDGKLEKIEIRIYRPEDLDKPPSAGGS [r8_307_TrROS_Hall],2.01 ± 0.15
